Holding throughout (assay): cell-based or functional assay
For test [1], the target named is HIV-1 Env of pseudovirus SC422661.8 (HIV-1).
Test [2] concerns the target HIV-1 Env of pseudovirus RHPA4259.7 (HIV-1).
In test [3] the target is HIV-1 Env of pseudovirus Du172.17 (HIV-1).
For test [4], the target named is HIV-1 Env of pseudovirus BB1012-11.TC21 (HIV-1).
Test [5] concerns the target HIV-1 Env of pseudovirus CNE52 (HIV-1).
Test [6] has as its target HIV-1 Env of pseudovirus 0260.v5.c36 (HIV-1).

Numbering of substitutions follows the chain as printed.

B1: MS-68 (antibody)
VH: not shown
VL: DFVLTQSPHSLPVTPGESASISCKSSHSLIHGDRNNYLAWYVQKPGRSPQLLIYLASSRASGVPDRFSGSGSDKDFTLKISRVETEDVGTYYCMQGRESPWTFGQGTKVDIKRTVAAPSVFIFPPSDEQLKSGTASVVCLLNNFYPREAKVQWKVDNALQSGNSQESVTEQDSKDSTYSLSSTLTLSKADYEKHKVYACEVTHQGLSSPVTKSFNRGEC
B1: the “neutralization IC50” value in test [1] was 0.538 µg/mL; in test [2], 0.199 µg/mL; in test [3] it was 1.82 µg/mL; in test [4], 0.023 µg/mL; in test [5], 0.136 µg/mL; in test [6], 0.019 µg/mL. Moreover, the “neutralization IC80” value in test [1] came to 2.02 µg/mL; in test [2] it was 0.759 µg/mL; in test [3], 6.8 µg/mL; in test [4], 0.076 µg/mL; in test [5], 1.13 µg/mL; in test [6], 0.073 µg/mL.

B2: MS-73 (antibody)
VH: not shown
VL: B1 VL with P12S, T85A
B2: the “neutralization IC50” value in test [1] turned out to be 0.384 µg/mL; in test [2], 0.094 µg/mL; in test [3], 0.934 µg/mL; in test [4], 0.023 µg/mL; in test [5], 0.207 µg/mL; in test [6], 0.018 µg/mL. For the same molecule, the “neutralization IC80” value in test [1] came out at 2.54 µg/mL; in test [2], 0.549 µg/mL; in test [3], 5 µg/mL; in test [4] it was 0.086 µg/mL; in test [5] it was 1.81 µg/mL; in test [6] it was 0.065 µg/mL.

B3: MS-69 (antibody)
VH: not shown
VL: B1 VL with P12S, S18P
Turning to B3, the “neutralization IC50” value came to 0.609 µg/mL in test [1]; 0.139 µg/mL in test [2]; 1.4 µg/mL in test [3]; 0.018 µg/mL in test [4]; 0.129 µg/mL in test [5]; 0.021 µg/mL in test [6]. In addition, the “neutralization IC80” value was 3.37 µg/mL in test [1]; 0.811 µg/mL in test [2]; 5.6 µg/mL in test [3]; 0.071 µg/mL in test [4]; 1.9 µg/mL in test [5]; 0.078 µg/mL in test [6].

B4: MS-71 (antibody)
VH: not shown
VL: B1 VL with P12S, D73G
For the molecule B4, the “neutralization IC50” value in test [1] is 0.273 µg/mL; in test [2], 0.164 µg/mL; in test [3] it was 1.29 µg/mL; in test [4] it was 0.015 µg/mL; in test [5] it was 0.172 µg/mL; in test [6], 0.022 µg/mL. In addition, the “neutralization IC80” value in test [1] was determined as 1.94 µg/mL; in test [2], 0.583 µg/mL; in test [3] it was 6.07 µg/mL; in test [4], 0.054 µg/mL; in test [5] it was 2.59 µg/mL; in test [6], 0.062 µg/mL.

B5: MS-70 (antibody, V domains shown)
VH: QVQLVQSGPEVRKPGTSVKVSCKAPGNTLKTYDLHWVRSVPGQGLQWMGWISHEGDKKVIVERFKAKVTIDWDRSTNTAYLQLSGLTSGDTAVYYCAKGSKHRLRDYALYDDDGALNWAVDVDYLSNLEFWGQGTAVTVSS
VL: DFVLTQSPHSLSVTPGESASISCKSSHSLIHGDRNNYLAWYVQKPGQSPQLLIYLASSRASGVPDRFSGSGSDKDFTLKISRVETEDVGTYYCMQGRESPWTFGQGTKVDIKR
As for B5, the “neutralization IC50” value in test [1] was determined as 0.391 µg/mL; in test [2], 0.182 µg/mL; in test [3], 1.49 µg/mL; in test [4], 0.021 µg/mL; in test [5], 0.301 µg/mL; in test [6] it was 0.028 µg/mL. Further, the “neutralization IC80” value was 2.43 µg/mL in test [1]; 0.734 µg/mL in test [2]; 6.05 µg/mL in test [3]; 0.079 µg/mL in test [4]; 2.55 µg/mL in test [5]; 0.103 µg/mL in test [6].

B6: MS-74 (antibody, V domains shown)
VH: B5 VH
VL: B5 VL with Q47R, T90V
With B6, the “neutralization IC50” value in test [1] is 0.388 µg/mL; in test [2] it was 0.132 µg/mL; in test [3], 1.46 µg/mL; in test [4], 0.021 µg/mL; in test [5] it was 0.169 µg/mL; in test [6], 0.017 µg/mL. Moreover, the “neutralization IC80” value in test [1] is 3.51 µg/mL; in test [2], 0.461 µg/mL; in test [3], 5.57 µg/mL; in test [4], 0.093 µg/mL; in test [5] it was 1.46 µg/mL; in test [6] it was 0.086 µg/mL.

B7: MS-75 (antibody, V domains shown)
VH: B5 VH with P25S
VL: B5 VL with Q47R
For the molecule B7, the “neutralization IC50” value in test [1] stood at 0.489 µg/mL; in test [2], 0.276 µg/mL; in test [3], 3.56 µg/mL; in test [4], 0.029 µg/mL; in test [5], 0.687 µg/mL; in test [6], 0.034 µg/mL. For the same molecule, the “neutralization IC80” value amounted to 9.41 µg/mL in test [1]; 1.31 µg/mL in test [2]; 16.1 µg/mL in test [3]; 0.134 µg/mL in test [4]; 7.55 µg/mL in test [5]; 0.137 µg/mL in test [6].

B8: MS-78 (antibody, V domains shown)
VH: B5 VH with Q46E
VL: B5 VL with Q47R
For B8, the “neutralization IC50” value was 0.635 µg/mL in test [1]; 0.241 µg/mL in test [2]; 1.71 µg/mL in test [3]; 0.024 µg/mL in test [4]; 0.233 µg/mL in test [5]; 0.02 µg/mL in test [6]. Further, the “neutralization IC80” value in test [1] was 3.63 µg/mL; in test [2], 0.841 µg/mL; in test [3] it was 7 µg/mL; in test [4] it was 0.105 µg/mL; in test [5], 1.39 µg/mL; in test [6], 0.095 µg/mL.

B9: MS-72 (antibody, V domains shown)
VH: B5 VH
VL: B5 VL with Q47R, K74T
Take B9: the “neutralization IC50” value in test [1] was 0.373 µg/mL; in test [2], 0.247 µg/mL; in test [3] it was 1.75 µg/mL; in test [4], 0.023 µg/mL; in test [5] it was 0.302 µg/mL; in test [6] it was 0.023 µg/mL. Also, the “neutralization IC80” value in test [1] was found to be 2.83 µg/mL; in test [2] it was 1.16 µg/mL; in test [3] it was 8.76 µg/mL; in test [4], 0.089 µg/mL; in test [5], 4.53 µg/mL; in test [6], 0.114 µg/mL.

B10: MS-77 (antibody, V domains shown)
VH: B5 VH with L29F
VL: B5 VL with Q47R
Regarding B10, the “neutralization IC50” value was 0.373 µg/mL in test [1]; 0.209 µg/mL in test [2]; 2.23 µg/mL in test [3]; 0.023 µg/mL in test [4]; 0.322 µg/mL in test [5]; 0.019 µg/mL in test [6]. The “neutralization IC80” value in test [1] came out at 3.59 µg/mL; in test [2], 0.734 µg/mL; in test [3], 12.2 µg/mL; in test [4], 0.103 µg/mL; in test [5], 2.71 µg/mL; in test [6] it was 0.101 µg/mL.

B11: MS-76 (antibody, V domains shown)
VH: B5 VH with N27Y
VL: B5 VL with Q47R
Regarding B11, the “neutralization IC50” value was determined as 0.36 µg/mL in test [1]; 0.242 µg/mL in test [2]; 1.7 µg/mL in test [3]; 0.013 µg/mL in test [4]; 0.174 µg/mL in test [5]; 0.01 µg/mL in test [6]. The “neutralization IC80” value worked out at 6.46 µg/mL in test [1]; 0.842 µg/mL in test [2]; 9.68 µg/mL in test [3]; 0.059 µg/mL in test [4]; 1.37 µg/mL in test [5]; 0.06 µg/mL in test [6].

Values taken from patent publication US20220025021A1 (BETH ISRAEL DEACONESS MEDICAL CENTER, published 2022).
